Data set [1] concerns the target T1, SLBP (histone stem-loop binding protein) (UniProt Q14493 1-270). Briefly: RIP pull-down with recombinant SLBP; with T-1* trigger; EMSA: 1x NT2 buffer, 1 mM DTT, RNaseOUT, 50 uL, room temperature 1 h, 1.25 ug SLBP (~37 pmol), native 8% PAGE in 1x TB; RIP: RNAs in 10 mM Tris/100 mM NaCl; pH. The note with it: label: none, trans three-way junction, bait:trigger 1:1, not a blunt duplex. In general terms: A gel shift assay detects complexes by their altered migration in electrophoresis.

Data set [2] has as its target T1, SLBP (histone stem-loop binding protein). Description: EMSA; without trigger; EMSA: 1x NT2 buffer, 1 mM DTT, RNaseOUT, 50 uL, room temperature 1 h, 1.25 ug SLBP (~37 pmol), native 8% PAGE in 1x TB; RIP: RNAs in 10 mM Tris/100 mM NaCl; pH. The note with it: protein: recombinant; label: none; alternative fold without HSL.
Data set [3] has the same target. Description: EMSA; with T-1 trigger; EMSA: 1x NT2 buffer, 1 mM DTT, RNaseOUT, 50 uL, room temperature 1 h, 1.25 ug SLBP (~37 pmol), native 8% PAGE in 1x TB; RIP: RNAs in 10 mM Tris/100 mM NaCl; pH. The note with it: protein: recombinant; label: none; trans three-way junction, bait:trigger 1:1, not a blunt duplex.

B1: B-1a + T-1* (trans-3WJ) (mixed)
RNA 1: GGGCAAACACCAUUGUCAAAAGGCUCUUUUCAGAGCCACACUCCA
RNA 2: UGGAGUGUGACAAUGGUGUUUG
modifications: 2'-OMe on trigger (strand 2)
Regarding B1, the binding result in data set [1] is reported as “binds”.

B2: B-1b (structured_RNA)
RNA: GGGAAGAGAGCCCAAACACCAUUGUCAAAAGGCUCUUUUCAGAGCUACACUCCAGAGCU
modifications: none
On to B2, for which the binding result in data set [2] is “no binding”.

B3: B-1b + T-1 (trans-3WJ) (structured_RNA)
RNA 1: B2 RNA
RNA 2: UGGAGUGUGACAAUGGUGUUUG
modifications: none
In the case of B3, in data set [3], the binding result was “binds”.

Values taken from article PMC5368982, “Engineering Structurally Interacting RNA (sxRNA)”.
